According to publication PMC9723946 (The Journal of Biological Chemistry, 2022):
Where no end group is shown, it is not given here. Ahx = NCCCCCC(=O)O

B1: USP10 peptide F13W (SPOT array) (peptide)
peptide: HSPQYIFGDWSPDEFNQFFV
B2: native USP10 peptide HSPQYIFGDFSPDEFNQFFV (SPOT array) (peptide)
peptide: HSPQYIFGDFSPDEFNQFFV
B3: USP10 peptide G11A (SPOT array) (peptide)
peptide: HSPQYIFADFSPDEFNQFFV
B4: USP10 peptide F13I (SPOT array) (peptide)
peptide: HSPQYIFGDISPDEFNQFFV
B5: USP10 peptide F13V (SPOT array) (peptide)
peptide: HSPQYIFGDVSPDEFNQFFV
B6: USP10 peptide F13L (SPOT array) (peptide)
peptide: HSPQYIFGDLSPDEFNQFFV
B7: USP10 peptide F13Y (SPOT array) (peptide)
peptide: HSPQYIFGDYSPDEFNQFFV
B8: Caprin1-derived dodecamer reporter peptide F*-YNFIQDSMLDFE (peptide)
peptide: {fluorescein-Ahx}-YNFIQDSMLDFE
B9: Caprin1 peptide N371E (SPOT array) (peptide)
peptide: QGPYEFIQDSMLDFENQTLD
B10: Caprin1 peptide N371V (SPOT array) (peptide)
peptide: QGPYVFIQDSMLDFENQTLD
B11: native Caprin1 peptide QGPYNFIQDSMLDFENQTLD (SPOT array) (peptide)
peptide: QGPYNFIQDSMLDFENQTLD
B12: Caprin1 peptide N371F (SPOT array) (peptide)
peptide: QGPYFFIQDSMLDFENQTLD
B13: Caprin1 peptide N371W (SPOT array) (peptide)
peptide: QGPYWFIQDSMLDFENQTLD
B14: Caprin1 peptide N371L (SPOT array) (peptide)
peptide: QGPYLFIQDSMLDFENQTLD
B15: Caprin1 peptide N371C (SPOT array) (peptide)
peptide: QGPYCFIQDSMLDFENQTLD
B16: Caprin1 peptide N371T (SPOT array) (peptide)
peptide: QGPYTFIQDSMLDFENQTLD
B17: Caprin1 peptide Y370F (SPOT array) (peptide)
peptide: QGPFNFIQDSMLDFENQTLD
B18: Caprin1 peptide N371Q (SPOT array) (peptide)
peptide: QGPYQFIQDSMLDFENQTLD
B19: Caprin1 peptide N371H (SPOT array) (peptide)
peptide: QGPYHFIQDSMLDFENQTLD
B20: Caprin1 peptide L378I (SPOT array) (peptide)
peptide: QGPYNFIQDSMIDFENQTLD
B21: Caprin1 peptide N371D (SPOT array) (peptide)
peptide: QGPYDFIQDSMLDFENQTLD
B22: Caprin1 peptide M377F (SPOT array) (peptide)
peptide: QGPYNFIQDSFLDFENQTLD
B23: Caprin1 peptide I373F (SPOT array) (peptide)
peptide: QGPYNFFQDSMLDFENQTLD
B24: Caprin1 peptide N371Y (SPOT array) (peptide)
peptide: QGPYYFIQDSMLDFENQTLD
B25: Caprin1 peptide S376C (SPOT array) (peptide)
peptide: QGPYNFIQDCMLDFENQTLD
B26: Caprin1 peptide N371S (SPOT array) (peptide)
peptide: QGPYSFIQDSMLDFENQTLD
B27: Caprin1 peptide D375E (SPOT array) (peptide)
peptide: QGPYNFIQESMLDFENQTLD
B28: Caprin1 peptide N371R (SPOT array) (peptide)
peptide: QGPYRFIQDSMLDFENQTLD
B29: Caprin1 peptide M377Y (SPOT array) (peptide)
peptide: QGPYNFIQDSYLDFENQTLD
B30: Caprin1 peptide N371M (SPOT array) (peptide)
peptide: QGPYMFIQDSMLDFENQTLD
B31: Caprin1 peptide I373L (SPOT array) (peptide)
peptide: QGPYNFLQDSMLDFENQTLD
B32: Caprin1 peptide N371I (SPOT array) (peptide)
peptide: QGPYIFIQDSMLDFENQTLD
B33: Caprin1 peptide N371K (SPOT array) (peptide)
peptide: QGPYKFIQDSMLDFENQTLD

Target: T1, His-tagged G3BP1 NTF2 (peptide arrays) (human, UniProt Q13283 1-139)
T1 sequence (Q13283 1-139): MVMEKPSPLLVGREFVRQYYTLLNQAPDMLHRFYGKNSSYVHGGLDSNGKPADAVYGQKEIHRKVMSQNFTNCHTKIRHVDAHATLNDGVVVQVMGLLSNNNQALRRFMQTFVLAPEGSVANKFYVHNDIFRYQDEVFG
Assay: peptide or protein array

Row | binding result | Binder
1 | binds | B1
2 | binds | B2
3 | binds | B3
4 | binds | B4
5 | binds | B5
6 | binds | B6
7 | binds | B7

Target: G3BP1 NTF2-like domain (1-139), WT (human, UniProt Q13283 1-139)
Sequence (Q13283 1-139): as above
Assay: fluorescence polarisation

Row | Kd | Binder
8 | 1.7 µM | B8

Target: G3BP1 NTF2-like domain (1-139) F15/124W (human, UniProt Q13283 1-139, F15W | F124W)
Sequence (Q13283 1-139 F15W/F124W): as the sequence (Q13283 1-139) above, with F15W, F124W counted along it
Assay: fluorescence polarisation

Row | Kd | Binder
9 | 14.4 µM | B8

Target: G3BP1 NTF2-like domain (1-139) F33/124W (human, UniProt Q13283 1-139, F33W | F124W)
Sequence (Q13283 1-139 F33W/F124W): as the sequence (Q13283 1-139) above, with F33W, F124W counted along it
Assay: fluorescence polarisation

Row | Kd | Binder
10 | 133 µM | B8

Target: G3BP1 NTF2-like domain (1-139) TripleW (F15W/F33W/F124W) (human, UniProt Q13283 1-139, F15W | F33W | F124W)
Sequence (Q13283 1-139 F15W/F33W/F124W): as the sequence (Q13283 1-139) above, with F15W, F33W, F124W counted along it
Assay: fluorescence polarisation

Row | Kd | Binder
11 | 240 µM | B8

Target: G3BP1 NTF2-like domain (1-139) F15W (human, UniProt Q13283 1-139, F15W)
Sequence (Q13283 1-139 F15W): as the sequence (Q13283 1-139) above, with F15W counted along it
Assay: fluorescence polarisation

Row | Kd | Binder
12 | 9.3 µM | B8

Target: G3BP1 NTF2-like domain (1-139) F124W (human, UniProt Q13283 1-139, F124W)
Sequence (Q13283 1-139 F124W): as the sequence (Q13283 1-139) above, with F124W counted along it
Assay: fluorescence polarisation

Row | Kd | Binder
13 | 1.7 µM | B8

Target: G3BP1 NTF2-like domain (1-139) F33W (human, UniProt Q13283 1-139, F33W)
Sequence (Q13283 1-139 F33W): as the sequence (Q13283 1-139) above, with F33W counted along it
Assay: fluorescence polarisation

Row | Kd | Binder
14 | 79.3 µM | B8

Target: G3BP1 NTF2-like domain (1-139) F15/33W (human, UniProt Q13283 1-139, F15W | F33W)
Sequence (Q13283 1-139 F15W/F33W): as the sequence (Q13283 1-139) above, with F15W, F33W counted along it
Assay: fluorescence polarisation

Row | Kd | Binder
15 | 256 µM | B8

Target: T1, His-tagged G3BP1 NTF2 (peptide arrays)
Assay: peptide or protein array
Remark: another data set of the same source

Row | binding result | Binder
16 | binds | B9
17 | binds | B10
18 | binds | B11
19 | binds | B12
20 | binds | B13
21 | binds | B14
22 | binds | B15
23 | binds | B16
24 | binds | B17
25 | binds | B18
26 | binds | B19
27 | binds | B20
28 | binds | B21
29 | binds | B22
30 | binds | B23
31 | binds | B24
32 | binds | B25
33 | binds | B26
34 | binds | B27
35 | binds | B28
36 | binds | B29
37 | binds | B30
38 | binds | B31
39 | binds | B32
40 | binds | B33

Target: G3BP1 NTF2-like domain (1-139) S38G (human, UniProt Q13283 1-139, S38G)
Sequence (Q13283 1-139 S38G): as the sequence (Q13283 1-139) above, with S38G counted along it
Assay: fluorescence polarisation

Row | Kd | Binder
41 | 10.5 µM | B8

Target: G3BP1 NTF2-like domain (1-139) S38A (human, UniProt Q13283 1-139, S38A)
Sequence (Q13283 1-139 S38A): as the sequence (Q13283 1-139) above, with S38A counted along it
Assay: fluorescence polarisation

Row | Kd | Binder
42 | 7.3 µM | B8

Target: G3BP1 NTF2-like domain (1-139) S38T (human, UniProt Q13283 1-139, S38T)
Sequence (Q13283 1-139 S38T): as the sequence (Q13283 1-139) above, with S38T counted along it
Assay: fluorescence polarisation

Row | Kd | Binder
43 | 11.8 µM | B8
